Ends that are not written are not given here. * marks the point of attachment. FITC = O=C1OC2(c3ccc(O)cc3Oc3cc(O)ccc32)c2ccc(NC(=S)*)cc21
Legend:
[1] = system: Pex5p^2D cells; experiment: Fluorescence microscopy, peroxisomal import of GFP-tagged proteins in Pex5p^2D-expressing cells; format: cell-based, S. cerevisiae; design: key to import phenotype category: showed a reduced peroxisomal import and constitute category 1; category 2 characterized by no peroxisomal import; without a noticeable effect on import in Pex5p^2D cells (category 3); details: GFP-tagged protein, Pex5p^2D-expressing cells; Pex3p-mCherry marker; SD medium, 2% glucose; assessed manually
Description: Query strains were constructed on the basis of an automated mating compatible strain. The query strains contained a peroxisomal marker (Pex3p-mCherry::HIS), a deletion of PEX5 (pex5Δ::NAT) and a plasmid expressing WT or mutant PEX5 (PEX5^WT, PEX5^2D or PEX5^2A). Using an automated mating method ([Cohen and Schuldiner 2011]; [Tong and Boone 2006]), the query strains were crossed with a NOP1pr-N′-GFP-peroxi library ([Dahan et al. 2017]). The NOP1pr-N′-GFP-peroxisomal library is a collection of ∼90 strains containing all the known peroxisomal proteins together with potential peroxisomal proteins and controls, genomically tagged with GFP at their N-terminus and expressed under the generic constitutive SpNOP1 promoter. To perform the manipulations in high-density format we used a RoToR bench top colony arrayer (Singer Instruments). In short: mating was performed on rich medium plates, and selection for diploid cells was performed on SD(MSG)-HIS-URA plates containing Geneticin (200 μg ml^−1) and Nourseothricin (200 μg ml^−1). Sporulation was induced by transferring cells to nitrogen starvation media plates for 7 days. Haploid cells containing the desired mutations were selected by transferring cells to SD-URA-HIS-LYS-ARG-LEU plates containing Geneticin and Nourseothricin (same concentrations as above), alongside the toxic amino acid derivatives Canavanine and Thialysine (Sigma-Aldrich) to select against remaining diploids and select for spores with an α mating type. A similar method was used to generate control, pex5Δ, and pex8Δ strains expressing GFP-Mdh3p (Supplementary Figure 4D), in which the query strain contained a peroxisomal marker (Pex3p-mCherry::NAT) and URA3::GFP-Mdh3p. This query strain was crossed with three strains from the mini peroxisomal deletion library ([Gabay-Maskit et al. 2020]): a control (no deletion), pex5Δ, and pex8Δ strain, all of which contain KAN (Geneticin) resistance.
The yeast collections were visualized using an automated microscopy setup as described previously ([Breker et al. 2013]). In short: cells were transferred from agar plates into 384-well polystyrene plates (Greiner) for growth in liquid media using the RoToR arrayer robot. Liquid cultures were grown in a LiCONiC incubator, overnight at 30 °C in SD-URA-HIS medium. A JANUS liquid handler (PerkinElmer) connected to the incubator was used to dilute the strains to an OD600 of ∼0.2 into plates containing SD medium (6.7 g l^−1 yeast nitrogen base and 2% glucose) supplemented with complete amino acids. Plates were incubated at 30 °C for 4 h. The cultures in the plates were then transferred by the liquid handler into glass-bottom 384-well microscope plates (Matrical Bioscience) coated with Concanavalin A (Sigma-Aldrich). After 20 min, cells were washed three times with SD-Riboflavin complete medium to remove non-adherent cells and to obtain a cell monolayer. The plates were then transferred to the ScanR automated inverted fluorescent microscope system (Olympus) using a robotic swap arm (Hamilton). Images of cells in the 384-well plates were recorded in the same liquid as the washing step at 24 °C using a 60× air lens (NA 0.9) and with an ORCA-ER charge-coupled device camera (Hamamatsu). Images were acquired in two channels: GFP (excitation filter 490/20 nm, emission filter 535/50 nm) and mCherry (excitation filter 572/35 nm, emission filter 632/60 nm). All images were taken at a single focal plane. The same protocol was used to visualize fluorescence signals in GFP-Mdh3p-expressing control, pex5Δ, and pex8Δ strains (Supplementary Figure 4D).

[2] = system: pex8Δ cells; details: ref Rehling et al. 2000; cited from earlier work
Description: Among the proteins with reduced peroxisomal import in Pex5p^2D cells (category 1) is Pex8p, an essential component of the import machinery for peroxisomal matrix proteins and required for the biogenesis of functional peroxisomes ([Agne et al. 2003]; [Rehling et al. 2000]), which may raise the question if the reduced import of most PTS1 proteins in Pex5p^2D cells is a consequence of decreased peroxisomal Pex8p levels.

[3] = system: yeast peroxisomes; details: under both glucose and oleate condition; ref Rosenthal et al. 2020; cited from earlier work
Description: We classified PTS1-proteins into three different categories according to the observed import phenotypes. […] In contrast, peroxisomal NADP-dependent isocitrate dehydrogenase (Idp3p; Figure 4C) and malate synthase 1 (Mls1p; Figure 4D) belong to category 2 characterized by no peroxisomal import (Supplementary Fi ...

[4] = target: T1, Pex5p wildtype, recombinant His6-tagged (HisPex5p) (S. cerevisiae, UniProt P35056 1-612); experiment: fluorescence polarisation; fluorescence anisotropy; 10 nM FITC-labelled peptide, serial dilutions of Pex5p variant 1.5 nM to 6.6 µM; 50 mM HEPES pH 7.5, 150 mM NaCl; one-site binding-saturation fit; details: both partners purified
T1 construct: Pex5p, PTS1 receptor of Saccharomyces cerevisiae, UniProtKB P35056, full length; No cleavage of the His tag is described; the native MS mass of the monomer is printed as 71.459 kDa; also called Pex5p^WT; source: E. coli BL21 RIL (DE3), purified (Ni-NTA, MonoQ anion exchange, SEC)
T1 sequence (looked up): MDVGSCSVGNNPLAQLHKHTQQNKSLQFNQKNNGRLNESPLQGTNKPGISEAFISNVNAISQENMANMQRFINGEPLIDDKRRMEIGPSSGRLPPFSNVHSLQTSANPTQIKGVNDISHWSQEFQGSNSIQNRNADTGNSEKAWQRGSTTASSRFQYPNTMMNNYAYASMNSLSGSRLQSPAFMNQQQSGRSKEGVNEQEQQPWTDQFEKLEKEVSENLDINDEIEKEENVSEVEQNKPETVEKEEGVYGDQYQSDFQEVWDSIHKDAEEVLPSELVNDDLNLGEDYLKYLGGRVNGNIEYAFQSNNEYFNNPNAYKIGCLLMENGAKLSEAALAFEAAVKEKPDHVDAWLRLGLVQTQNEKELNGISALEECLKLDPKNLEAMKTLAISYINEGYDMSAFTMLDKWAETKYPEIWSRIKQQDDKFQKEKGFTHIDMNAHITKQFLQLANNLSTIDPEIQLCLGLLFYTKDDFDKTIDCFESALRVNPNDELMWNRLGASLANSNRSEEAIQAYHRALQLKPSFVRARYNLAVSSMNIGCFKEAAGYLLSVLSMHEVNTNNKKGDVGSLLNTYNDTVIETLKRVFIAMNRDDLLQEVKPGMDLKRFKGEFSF

[5] = target: T2, Pex5p-S507/523D, recombinant His6-tagged phospho-mimicking mutant (S. cerevisiae, UniProt P35056 1-612, S507D | S523D); experiment: as above; details: both partners purified
T2 construct: Pex5p, PTS1 receptor of Saccharomyces cerevisiae, UniProtKB P35056, full length, with S507D and S523D; No cleavage of the His tag is described; the native MS mass of the monomer is printed as 71.515 kDa; also called Pex5p^2D; Pex5p-S507D/523D; source: E. coli BL21 RIL (DE3), purified (Ni-NTA, MonoQ anion exchange, SEC)
T2 sequence (looked up): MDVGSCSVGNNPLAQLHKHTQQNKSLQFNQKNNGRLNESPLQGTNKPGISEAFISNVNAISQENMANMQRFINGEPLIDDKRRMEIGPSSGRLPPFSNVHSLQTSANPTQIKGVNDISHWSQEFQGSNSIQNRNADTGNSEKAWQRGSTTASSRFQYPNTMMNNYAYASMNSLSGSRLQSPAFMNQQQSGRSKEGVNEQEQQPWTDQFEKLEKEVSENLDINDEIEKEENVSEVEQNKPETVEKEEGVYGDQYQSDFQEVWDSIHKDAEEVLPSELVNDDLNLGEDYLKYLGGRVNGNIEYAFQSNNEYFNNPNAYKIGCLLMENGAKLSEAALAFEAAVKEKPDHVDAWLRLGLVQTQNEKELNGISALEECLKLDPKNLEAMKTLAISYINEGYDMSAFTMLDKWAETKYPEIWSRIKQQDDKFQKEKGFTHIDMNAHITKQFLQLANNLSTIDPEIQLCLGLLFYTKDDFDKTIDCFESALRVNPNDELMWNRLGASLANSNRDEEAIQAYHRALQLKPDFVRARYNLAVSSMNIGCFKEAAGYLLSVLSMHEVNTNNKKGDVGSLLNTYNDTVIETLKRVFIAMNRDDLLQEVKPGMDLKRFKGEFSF

For “Pcs60p: peroxisomal oxalyl-CoA synthetase, PTS1-protein”, the import phenotype category [1] is given as “category 1” and the subcellular distribution [2] is given as “mislocalization”.

In the case of “Lys1p: saccharopine dehydrogenase ({FITC}-YARVKRSSRL)”, the import phenotype category [1] is listed as “category 3” and the “targeting priority to peroxisomes” value [3] is listed as “high targeting priority”.

In the case of “Cat2p: carnitine acetyl-CoA transferase ({FITC}-YNENKRKAKL)”, the import phenotype category [1] is listed as “category 3” and the “targeting priority to peroxisomes” value [3] is listed as “high targeting priority”.

B1: Cat2p nonapeptide, FITC-YNENKRKAKL (peptide)
peptide: {FITC}-YNENKRKAKL
notes: tyrosine added to the peptide amino-terminus for concentration measurements; the nine carboxy-terminal residues of Cat2p (carnitine acetyl-CoA transferase), S. cerevisiae; An extra N-terminal tyrosine stands before the natural stretch; also called Cat2p peptide; source: synthetic peptide (GenScript)
B1 gave a Kd [4] of 116 nM and a Kd [5] of 896 nM.

B2: Lys1p nonapeptide, FITC-YARVKRSSRL (peptide)
peptide: {FITC}-YARVKRSSRL
notes: tyrosine added to the peptide amino-terminus for concentration measurements; the nine carboxy-terminal residues of Lys1p (saccharopine dehydrogenase), S. cerevisiae; An extra N-terminal tyrosine stands before the natural stretch; also called Lys1p peptide; source: synthetic peptide (GenScript)
B2 showed a Kd [4] of 88.8 nM and a Kd [5] of 3690 nM.

B3: Mdh3p: peroxisomal malate dehydrogenase (protein, UniProt P32419 2-343, looked up)
Malate dehydrogenase, …: VKVAILGASGGVGQPLSLLLKLSPYVSELALYDIRAAEGIGKDLSHINTNSSCVGYDKDSIENTLSNAQVVLIPAGVPRKPGLTRDDLFKMNAGIVKSLVTAVGKFAPNARILVISNPVNSLVPIAVETLKKMGKFKPGNVMGVTNLDLVRAETFLVDYLMLKNPKIGQEQDKTTMHRKVTVIGGHSGETIIPIITDKSLVFQLDKQYEHFIHRVQFGGDEIVKAKQGAGSATLSMAFAGAKFAEEVLRSFHNEKPETESLSAFVYLPGLKNGKKAQQLVGDNSIEYFSLPIVLRNGSVVSIDTSVLEKLSPREEQLVNTAVKELRKNIEKGKSFILDSSKL
For B3, the import phenotype category [1] is given as “category 3” and the “targeting priority to peroxisomes” value [3] is given as “high targeting priority”.

B4: Cta1p: protein mislocalized to the cytosol in pex8Δ cells in a previous study (protein, UniProt P15202 2-515, looked up)
Peroxisomal catalase A: SKLGQEKNEVNYSDVREDRVVTNSTGNPINEPFVTQRIGEHGPLLLQDYNLIDSLAHFNRENIPQRNPHAHGSGAFGYFEVTDDITDICGSAMFSKIGKRTKCLTRFSTVGGDKGSADTVRDPRGFATKFYTEEGNLDWVYNNTPVFFIRDPSKFPHFIHTQKRNPQTNLRDADMFWDFLTTPENQVAIHQVMILFSDRGTPANYRSMHGYSGHTYKWSNKNGDWHYVQVHIKTDQGIKNLTIEEATKIAGSNPDYCQQDLFEAIQNGNYPSWTVYIQTMTERDAKKLPFSVFDLTKVWPQGQFPLRRVGKIVLNENPLNFFAQVEQAAFAPSTTVPYQEASADPVLQARLFSYADAHRYRLGPNFHQIPVNCPYASKFFNPAIRDGPMNVNGNFGSEPTYLANDKSYTYIQQDRPIQQHQEVWNGPAIPYHWATSPGDVDFVQARNLYRVLGKQPGQQKNLAYNIGIHVEGACPQIQQRVYDMFARVDKGLSEAIKKVAEAKHASELSSNSKF
For B4, the subcellular distribution [2] is given as “mislocalization”.

B5: Fox3p: 3-ketoacyl-CoA thiolase, PTS2 import pathway (protein, UniProt P27796 16-417, looked up)
3-ketoacyl-CoA thiolase, …: AMGKGESKRKNSLLEKRPEDVVIVAANRSAIGKGFKGAFKDVNTDYLLYNFLNEFIGRFPEPLRADLNLIEEVACGNVLNVGAGATEHRAACLASGIPYSTPFVALNRQCSSGLTAVNDIANKIKVGQIDIGLALGVESMTNNYKNVNPLGMISSEELQKNREAKKCLIPMGITNENVAANFKISRKDQDEFAANSYQKAYKAKNEGLFEDEILPIKLPDGSICQSDEGPRPNVTAESLSSIRPAFIKDRGTTTAGNASQVSDGVAGVLLARRSVANQLNLPVLGRYIDFQTVGVPPEIMGVGPAYAIPKVLEATGLQVQDIDIFEINEAFAAQALYCIHKLGIDLNKVNPRGGAIALGHPLGCTGARQVATILRELKKDQIGVVSMCIGTGMGAAAIFIKE
In the case of B5, the subcellular distribution [2] is listed as “mislocalization”.

— article PMC9929924, “Phosphorylation of the receptor protein Pex5p modulates import of proteins into peroxisomes” (Biological Chemistry, 2022)
